Test results: patent publication US20240116985A1 (published 2024)
Starred links: 1 amine or outer side, 2 acyl side, 3 side chain; linkers in the order of their positions; H or OH if unused. Positions of bridges follow the written chain, without caps; N, C: chain ends. Non-standard residues stand in square brackets, D forms with d. Groups on a side chain read outwards from the residue. Primed or numbered codes have the meaning given here. *: point of attachment. (4Pippip)GlnR = (S)-5-([1,4'-bipiperidin]-1'-yl)-2-amino-5-oxopentanoic acid (Gln side-chain amide with 4-piperidinopiperidine), O=C(CC[C@H](N[*:1])C(=O)[*:2])N1CCC(N2CCCCC2)CC1; (4MePpzPip)GlnR = (S)-2-amino-5-(4-(4-methylpiperazin-1-yl)piperidin-1-yl)-5-oxopentanoic acid, CN1CCN(C2CCN(C(=O)CC[C@H](N[*:1])C(=O)[*:2])CC2)CC1; (Me2NPrPip)GlnR = (S)-2-amino-5-(4-(3-(dimethylamino)propyl)piperazin-1-yl)-5-oxopentanoic acid, CN(C)CCCN1CCN(C(=O)CC[C@H](N[*:1])C(=O)[*:2])CC1; PyrS2″ = (S)-3-amino-1-((pent-4-en-1-yloxy)carbonyl)pyrrolidine-3-carboxylic acid (stapling residue), C=CCCCOC(=O)N1CC[C@@](N[*:1])(C(=O)[*:2])C1; B5(4) = 2,2-bis(4-pentenyl)glycine = 2-amino-2-(pent-4-en-1-yl)hept-6-enoic acid (stitching residue), C=CCCCC(CCCC=C)(N[*:1])C(=O)[*:2]; TfeGA = (S)-2-amino-3-((carboxymethyl)(2,2,2-trifluoroethyl)amino)propanoic acid, O=C([C@H](CN(CC(=O)[*:3])CC(F)(F)F)N[*:1])[*:2]; PyrS2 = (S)-3-amino-1-((pent-4-en-1-yloxy)carbonyl)pyrrolidine-3-carboxylic acid, C=CCCCOC(=O)N1CC[C@@](N[*:1])(C(=O)[*:2])C1; F2PipNva = (S)-2-amino-5-(4,4-difluoropiperidin-1-yl)pentanoic acid, O=C([C@H](CCCN1CCC(F)(F)CC1)N[*:1])[*:2]; Lithocholoyl = C[C@H](CCC(=O)*)[C@H]1CC[C@H]2[C@@H]3CC[C@@H]4C[C@H](O)CC[C@]4(C)[C@H]3CC[C@]12C; MorphAsn = (S)-2-amino-4-morpholino-4-oxobutanoic acid, O=C(C[C@H](N[*:1])C(=O)[*:2])N1CCOCC1; B5(3) = 2,2-bis(4-pentenyl)glycine (stitching residue), C=CCCCC(CCCC=C)(N[*:1])C(=O)[*:2]; Me3AdamantC = 3,5,7-trimethyladamantane-1-carbonyl, CC12CC3(C)CC(C)(C1)CC(C(=O)*)(C2)C3; Nva(5-morpholino) = N[C@@H](CCCN1CCOCC1)C(=O)O; Bta = N[C@@H](Cc1csc2ccccc12)C(=O)O; αAllylPro = C=CC[C@@]1(C(=O)O)CCCN1; tBuAla = CC(C)(C)C[C@H](N)C(=O)O; 3Thi = N[C@@H](Cc1ccsc1)C(=O)O; TfeGA″ = not defined here; PEG2′ = not defined here

T1: Bcat-Halo (beta-catenin HaloTag construct transfected into HEK293 cells) (UniProt P35222 1-781)
T1 sequence (looked up): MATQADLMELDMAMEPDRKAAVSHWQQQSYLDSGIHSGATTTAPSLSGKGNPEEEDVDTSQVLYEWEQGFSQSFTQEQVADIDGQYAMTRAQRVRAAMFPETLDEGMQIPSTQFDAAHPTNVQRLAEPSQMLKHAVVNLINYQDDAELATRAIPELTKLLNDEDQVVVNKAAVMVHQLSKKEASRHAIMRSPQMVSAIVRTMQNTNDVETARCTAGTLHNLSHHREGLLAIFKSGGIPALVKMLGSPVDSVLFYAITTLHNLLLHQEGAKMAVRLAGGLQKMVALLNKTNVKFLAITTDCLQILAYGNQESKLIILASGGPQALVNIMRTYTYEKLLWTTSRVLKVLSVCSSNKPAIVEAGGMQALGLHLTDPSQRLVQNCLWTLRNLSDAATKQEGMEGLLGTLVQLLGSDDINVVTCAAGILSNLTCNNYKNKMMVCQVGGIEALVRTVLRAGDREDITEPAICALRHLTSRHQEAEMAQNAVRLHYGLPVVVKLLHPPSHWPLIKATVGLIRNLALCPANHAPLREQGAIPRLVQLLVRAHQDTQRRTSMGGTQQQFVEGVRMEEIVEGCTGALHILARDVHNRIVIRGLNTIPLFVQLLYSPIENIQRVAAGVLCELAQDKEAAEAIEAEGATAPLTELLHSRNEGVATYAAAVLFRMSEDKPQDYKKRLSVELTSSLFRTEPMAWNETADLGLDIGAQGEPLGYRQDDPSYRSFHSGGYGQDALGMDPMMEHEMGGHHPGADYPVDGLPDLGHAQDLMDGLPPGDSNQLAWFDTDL

T2: B-cat-Halo (beta-catenin HaloTag NanoBRET construct expressed in HEK293 cells) (UniProt P35222 1-781, HaloTag NanoBRET 618 Ligand bound in the assay)
T2 sequence (looked up): T1 sequence (looked up)


These binders were tested against T1, Bcat-Halo (beta-catenin HaloTag …) (assay: cell-based or functional assay).

Binder	NanoBRET Abs IC50 [µM]
Ac-[αAllylPro]D[tBuAla][B5(4)]DDAK([PEG2′-Me3AdamantC])FL[PyrS2″][3Thi][Bta]Q-NH2 (staple 1-4, 4-11) [I-1476]	> 20
Ac-[αAllylPro]D[tBuAla][B5(3)]DD[MorphAsn]AFL[PyrS2″][3Thi][Bta]Q-NH2 (staple 1-4, 4-11) [I-1483]	> 20
Ac-[αAllylPro]D[tBuAla][B5(4)]DDAK([PEG2′-Lithocholoyl])FL[PyrS2″][3Thi][Bta]Q-NH2 (staple 1-4, 4-11) [I-1474]	> 20
Ac-[αAllylPro]DK([PEG2′-Lithocholoyl])[B5(4)]DDAAFL[PyrS2][3Thi][Bta]Q-NH2 (staple 1-4, 4-11) [I-1470]	> 20
Ac-[αAllylPro]DK(Me3AdamantC)[B5(4)]DDAAFL[PyrS2][3Thi][Bta]Q-NH2 (staple 1-4, 4-11) [I-1471]	> 20
Ac-[αAllylPro]D[tBuAla][B5(3)]DD[F2PipNva]AFL[PyrS2″][3Thi][Bta]Q-NH2 (staple 1-4, 4-11) [I-1482]	18
Ac-[αAllylPro]D[tBuAla][B5(4)]DDAAFL[PyrS2″][3Thi][Bta]QK([PEG2′-Lithocholoyl])-NH2 (staple 1-4, 4-11) [I-1478]	17.1
Ac-[αAllylPro]D[tBuAla][B5(3)]DD[Nva(5-morpholino)]AFL[PyrS2″][3Thi][Bta]Q-NH2 (staple 1-4, 4-11) [I-1481]	39.7
Ac-[αAllylPro]D[tBuAla][B5(3)]DDAAFL[PyrS2″][3Thi][Bta]QK([PEG2′-Me3AdamantC])-NH2 (staple 1-4, 4-11) [I-1480]	9.3
Ac-[αAllylPro]DK([PEG2′-Me3AdamantC])[B5(4)]DDAAFL[PyrS2][3Thi][Bta]Q-NH2 (staple 1-4, 4-11) [I-1472]	> 20

Each binder was assayed against T2, B-cat-Halo (beta-catenin HaloTag …) (assay: cell-based or functional assay).

Binder	NanoBRET Abs IC50 [µM]
Ac-[αAllylPro]D[tBuAla][B5(3)]D[TfeGA]AAFL[PyrS2″][3Thi][Bta][(4Pippip)GlnR]-NH2 (staple 1-4, 4-11; not fully specified) [I-1797]	22.5
Ac-[αAllylPro]D[tBuAla][B5(3)]D[TfeGA″]AAFL[PyrS2″][3Thi][Bta][(Me2NPrPip)GlnR]-NH2 (staple 1-4, 4-11; not fully specified; reading uncertain) [I-1800]	25.2
Ac-[αAllylPro]D[tBuAla][B5(3)]D[TfeGA]AAFL[PyrS2″][3Thi][Bta][(4MePpzPip)GlnR]-NH2 (staple 1-4, 4-11; not fully specified) [I-1801]	17.5
Ac-[αAllylPro]D[tBuAla][B5(3)]D[TfeGA]AAFL[PyrS2″][3Thi][Bta][(Me2NPrPip)GlnR]-NH2 (staple 1-4, 4-11; not fully specified) [I-1799]	25.8
